From PMC9458460, “Structural basis of 3′-end poly(A) RNA recognition by LARP1”

Tests used:
LARP1 LaM [1] = molecular target: T1, LARP1 LaM (UniProt Q6PKG0-3 323-410); test: ITC; 10 mM MES pH 6.3, 100 mM NaCl, 1 mM TCEP (HPLC and NMR buffer; ITC buffer not stated separately); ITC 293 K, NMR 25 C
LARP1 LaM [2] = molecular target: T1, LARP1 LaM; test: as above; remark: listed apart in the source
LARP1 LaM Q333A/F348A = LARP1 LaM Q333A/F348A (UniProt Q6PKG0-3 323-410, Q333A;F348A); test: as above
LARP1 LaM Y336A/F348A = LARP1 LaM Y336A/F348A (UniProt Q6PKG0-3 323-410, Y336A;F348A); test: as above
LARP1 LaM R345A = LARP1 LaM R345A (UniProt Q6PKG0-3 323-410, R345A); test: as above
LARP1 LaM Q333A = LARP1 LaM Q333A (UniProt Q6PKG0-3 323-410, Q333A); test: as above
LARP1 LaM [3] = molecular target: T1, LARP1 LaM; test: crystal structure; 1.15 A; 10 mM MES pH 6.3, 100 mM NaCl, 1 mM TCEP (HPLC and NMR buffer; ITC buffer not stated separately); ITC 293 K, NMR 25 C
[4] = molecular target: LARP1 323-509 Y336A/F348A (UniProt Q6PKG0-3 323-509, Y336A;F348A); test: ITC; 10 mM MES pH 6.3, 100 mM NaCl, 1 mM TCEP (HPLC and NMR buffer; ITC buffer not stated separately); ITC 293 K, NMR 25 C; conditions: protein: recombinant
LARP1 LaM-RRM region = LARP1 LaM-RRM region (UniProt Q6PKG0-3 323-509); test: as above; conditions: protein: recombinant
[5] = molecular target: LARP1 323-509 Q333A/F348A (UniProt Q6PKG0-3 323-509, Q333A;F348A); test: as above; conditions: protein: recombinant

| Binder | binding signal (LARP1 LaM [1]) [fold weaker than A6] | binding result (LARP1 LaM [2]) | also measured |
| --- | --- | --- | --- |
| UUUUUU (ssRNA) [U6] | ~10 | – | – |
| AAAA (ssRNA) [A4] | – | binds | binding result (LARP1 LaM Q333A/F348A): no binding; binding result (LARP1 LaM Y336A/F348A): no binding; binding signal (LARP1 LaM R345A): ~2 fold weaker than wild type; binding signal (LARP1 LaM Q333A): ~20 fold weaker than wild type |
| AACAAA (ssRNA) [A2CA3] | – | binds | – |
| AAA (ssRNA) [A3] | – | – | binding result (LARP1 LaM [3]): binds |
| AAAUAA (ssRNA) [A3UA2] | – | binds | – |
| GGGGGG (ssRNA) [G6] | ~10 | – | – |
| AAAAAA (ssRNA, 3' phosphate) [A5A(p)] | ~200 | – | – |
| ACAAAA (ssRNA) [ACA4] | – | binds | – |
| AAACAA (ssRNA) [A3CA2] | – | binds | – |
| AAAAAA (ssRNA) [A6] | – | binds | – |
| AAAAAC (ssRNA) [A5C] | ~10 | – | – |
| AAAACA (ssRNA) [A4CA] | ~10 | – | – |
| AAAAAAAAAAAAAAAAAAAAAAAAA (ssRNA) [A25] | – | – | binding result [4]: no binding; Kd (LARP1 LaM-RRM region): ~200 nM; Kd (LARP1 LaM [2]): < 1000 nM; binding result [5]: no binding |
| CCCCCC (ssRNA) [C6] | > 200 | – | – |
| AAAAAAAAAAA (ssRNA) [A11] | – | binds | – |
